In patent WO2023028914A1 (dated 2023):
Each block holds one binder with its values, some of them ahead of it.

Target: T1, human Her3-His recombinant protein (human, UniProt P21860 20-643)
T1 construct: Recombinant His-tagged human Her3; not shown: His tag
Assay: BLI (Fortebio Octet 96e), antibody loaded on AMC sensor, human Her3-His 100-3.13 nM in solution

T1 sequence (P21860 20-643 limits assumed): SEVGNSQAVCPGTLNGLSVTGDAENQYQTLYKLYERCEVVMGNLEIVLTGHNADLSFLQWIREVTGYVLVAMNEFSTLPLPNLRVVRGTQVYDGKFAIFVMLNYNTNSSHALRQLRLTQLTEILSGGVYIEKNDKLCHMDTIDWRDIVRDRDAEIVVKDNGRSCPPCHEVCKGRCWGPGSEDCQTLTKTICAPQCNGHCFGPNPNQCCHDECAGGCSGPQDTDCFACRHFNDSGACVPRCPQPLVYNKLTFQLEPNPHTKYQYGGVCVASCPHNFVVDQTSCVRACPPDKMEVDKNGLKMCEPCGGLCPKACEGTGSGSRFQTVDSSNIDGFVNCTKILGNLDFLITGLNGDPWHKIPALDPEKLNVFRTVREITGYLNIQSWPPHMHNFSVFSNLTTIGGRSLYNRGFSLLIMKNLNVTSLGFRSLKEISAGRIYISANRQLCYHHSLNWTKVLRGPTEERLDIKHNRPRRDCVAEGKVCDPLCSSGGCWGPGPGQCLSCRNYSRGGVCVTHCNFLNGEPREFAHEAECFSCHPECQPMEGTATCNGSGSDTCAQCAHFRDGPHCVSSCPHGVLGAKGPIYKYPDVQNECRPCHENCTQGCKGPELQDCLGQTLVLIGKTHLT

Kd: 2.43 nM
koff: 0.000357 s⁻¹
kon: 147000 M⁻¹ s⁻¹
B1: monoclonal antibody 2F8 (antibody, V domains shown)
VH: QVQLQQWGAGLLKPSETLSLTCAVYGGSFSGYYWSWIRQPPGKGLEWIGEINHSGSTNYNPSLKSRVTISVETSKNQFSLKLSSVTAADTAVYYCARDKWTWYFDLWGRGTLVTVSS
VL: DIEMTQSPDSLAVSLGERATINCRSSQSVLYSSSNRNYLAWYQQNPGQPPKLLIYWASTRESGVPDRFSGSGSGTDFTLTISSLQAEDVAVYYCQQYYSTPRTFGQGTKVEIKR
notes: also called 2F8-new; parental molecule 2F8

Kd: 2.53 nM
koff: 0.000393 s⁻¹
kon: 156000 M⁻¹ s⁻¹
B2: antibody 3F5 (light chain mutant 2F8-Lm1 combined with heavy chain 2F8-H-new) (antibody, human IgG1, kappa, V domains shown)
VH: B1 VH
VL: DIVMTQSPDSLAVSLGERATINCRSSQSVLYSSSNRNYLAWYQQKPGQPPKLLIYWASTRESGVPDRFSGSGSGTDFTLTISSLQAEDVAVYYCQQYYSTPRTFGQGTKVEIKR
notes: also called 2F8-m1; 3F5 mutant
